Measured values: publication PMC9912195, “The 3D‐structure, kinetics and dynamics of the E. coli nitroreductase NfsA with NADP ^+ provide glimpses of its catalytic mechanism” (Febs Letters, 2022)

Legend:
NfsA [1] = biological target: T1, NfsA (Escherichia coli, UniProt P17117); experiment: stopped-flow re-oxidation of reduced enzyme, […] nm, anaerobic; format: biochemical; conditions: dithionite-reduced enzyme
T1 construct: full-length, untagged, from pET24 derivative pPS1341A1 in E. coli BL21(lambda DE3); 240 amino acids
T1 sequence (P17117 whole entry): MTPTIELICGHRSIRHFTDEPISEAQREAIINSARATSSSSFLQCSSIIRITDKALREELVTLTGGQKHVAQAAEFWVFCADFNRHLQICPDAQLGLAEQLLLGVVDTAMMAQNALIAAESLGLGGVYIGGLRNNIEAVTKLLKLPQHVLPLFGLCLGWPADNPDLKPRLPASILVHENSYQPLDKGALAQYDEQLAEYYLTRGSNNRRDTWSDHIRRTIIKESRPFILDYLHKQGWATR

NfsA [2] = biological target: T1, NfsA; experiment: steady-state inhibition of nitrofurazone reduction, global ping-pong fit, […] nm; format: biochemical
NfsA [3] = biological target: T1, NfsA; experiment: steady-state kinetics; format: biochemical; conditions: co-substrate NADPH
[4] = system: NC(=O)N/N=C/c1ccc([N+](=O)[O-])o1; experiment: purified protein; format: biochemical, Escherichia coli; conditions: co-substrate NADPH, 10 mM Tris pH 7.0, 50 mM NaCl, 4.5% DMSO, 25 °C
[5] = system: NC(=O)C1=CN([C@@H]2O[C@H](COP(=O)(O)OP(=O)(O)OC[C@H]3O[C@@H](n4cnc5c(N)ncnc54)[C@H](O)[C@@H]3O)[C@@H](O)[C@H]2O)C=CC1; experiment: purified protein; format: biochemical, Escherichia coli; conditions: 100 μM nitrofurazone, 10 mM Tris pH 7.0, 4.5% DMSO, 25 °C
[6] = system: NC(=O)C1=CN([C@@H]2O[C@H](COP(=O)(O)OP(=O)(O)OC[C@H]3O[C@@H](n4cnc5c(N)ncnc54)[C@H](OP(=O)(O)O)[C@@H]3O)[C@@H](O)[C@H]2O)C=CC1; experiment: purified protein; format: biochemical, Escherichia coli; conditions: 100 μM nitrofurazone, 10 mM Tris pH 7.0, 4.5% DMSO, 25 °C

## NC(=O)c1cc(N2CC2)c([N+](=O)[O-])cc1[N+](=O)[O-] [CB1954, 5 aziridin‐1‐yl‐2,4 dinitrobenzamide]
NfsA [1]; 10 mM Tris pH 7, 5% DMSO, 25 °C, unreliable (extrapolated beyond highest concentration 500 μM)
  K d: 660 ± 90 µM

## NC(=O)c1ccc[n+]([C@@H]2O[C@H](COP(=O)(O)OP(=O)(O)OC[C@H]3O[C@@H](n4cnc5c(N)ncnc54)[C@H](OP(=O)(O)O)[C@@H]3O)[C@@H](O)[C@H]2O)c1 [NADP^+]
NfsA [2]
  Ki: 250 ± 70 µM

## CC1=CC(=O)c2ccccc2C1=O [menadione]
NfsA [3]
  Km: 11 ± 2 µM
NfsA [1]; 10 mM Tris pH 7, 25 °C, unreliable (extrapolated, highest concentration 100 μM)
  K d: 330 ± 115 µM

## NfsA (Escherichia coli K-12)
[4]
  Km: 12 µM
  kcat: 23.1 s⁻¹
[5]
  Km: 700 ± 100 µM
  kcat: 20 ± 1 s⁻¹
  kcat/Km: 27000 ± 3000 M⁻¹ s⁻¹
[6]
  Km: 19 ± 4 µM
  kcat: 24 ± 1 s⁻¹
  kcat/Km: 1.2e+06 ± 200000 M⁻¹ s⁻¹
